The source of these data is publication PMC4351158 (Structure (London, England : 1993), 2015).

What all share (experiment): fluorescence polarisation
Background: Fluorescence polarisation rises when a labelled molecule tumbles more slowly, as on binding a larger partner.

The target in test [1] is T1, DegS P161A (E. coli, UniProt P0AEE3 27-355, P161A).
T1 sequence (looked up): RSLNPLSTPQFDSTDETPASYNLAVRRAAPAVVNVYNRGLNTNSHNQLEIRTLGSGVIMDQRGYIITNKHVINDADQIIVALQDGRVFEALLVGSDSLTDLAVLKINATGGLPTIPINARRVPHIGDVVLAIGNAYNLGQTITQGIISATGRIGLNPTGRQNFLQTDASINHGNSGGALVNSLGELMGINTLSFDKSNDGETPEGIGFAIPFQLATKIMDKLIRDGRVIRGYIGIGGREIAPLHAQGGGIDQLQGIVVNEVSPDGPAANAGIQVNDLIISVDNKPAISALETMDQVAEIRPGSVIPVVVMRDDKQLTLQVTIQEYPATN

The target of test [2] is T2, DegS Q191A/H198P (E. coli, UniProt P0AEE3 27-355, Q191A | H198P).
T2 sequence (looked up): T1 sequence (looked up) with A135P, Q165A, H172P

The target in test [3] is T3, DegS I179A/H198P (E. coli, UniProt P0AEE3 27-355, I179A | H198P).
T3 sequence (looked up): T1 sequence (looked up) with A135P, I153A, H172P

The target of test [4] is T4, DegS F220A/H198P (E. coli, UniProt P0AEE3 27-355, F220A | H198P).
T4 sequence (looked up): T1 sequence (looked up) with A135P, H172P, F194A

Test [5] concerns the target T5, DegS H198P (E. coli, UniProt P0AEE3 27-355, H198P).
T5 sequence (looked up): T1 sequence (looked up) with A135P, H172P

Positions count from the first letter of the chain named. Where no end group is shown, it is not given here. fluorescein = fluorescein, a fluorescent label on the peptide N-terminus

B1: fluorescent OMP peptide fluorescein-DNRDGNVYYF (peptide)
peptide: fluorescein-DNRDGNVYYF
For B1, the Kd (as a rule, the equilibrium constant for the complex coming apart) stood at 1.5 ± 0.1 µM in test [1]; 1.4 ± 0.1 µM in test [2]; 1.6 ± 0.1 µM in test [3]; 1.6 ± 0.1 µM in test [4]; 2.5 ± 0.3 µM in test [5].
